{"source": "the DeepSol protein solubility set", "data": [{"test": "soluble on expression in E. coli; label from the status in PepcDB or PDB records", "values": [{"sequence": "MGSDKIHHHHHHMQFLKVYSVFGEEVVGCHVRIENLSVACSVVSAGGTHPSEKCVCNHEFSSVSLHQKKHPHLEKLLETSRPIKLDSSSKVLILSDLHMGNGGRRDEFRRNSELVRSMLQDYYLPGGYSLVLNGDIEELFKFSVEDITKVWGHIYDLFLQFEKNGFFWKTYGNHDSDLFEERNYPLSKHLLESIRFQYGDEVMLLFHGHQASILLWETYPLVSRAVVLFLRYVAKPIGIRNFSTAYNSRRRFAIEKSIYEFSNQAKIVSIIGHTHRPLFESLSKVDHLKYKIEELCRQYPSALPEERLAIQERIGELKAMLDACFTEGKKIGLRSGRYNNIAIPSVFNSGCAIGKRGVTALEIDGDRIRLVYWFKEKQGRRFVSDRNSEPEQLGDTGFYRIVLNEDHLDYVFSRIRLLA", "soluble on expression in E. coli": "not soluble"}, {"sequence": "MGSDKIHHHHHHMQGIQQSLPLAVVRGEPVRELPADLFIPPEALEVFLEAFEGPLDLLLYLIRKQKLDVIELPLTLIAAQYLEYIRLLTDARIELAADYLVMAATLAEIKSRLLLPKMAVEDDEEEDPRVRLIKQLKAYESIREAAFKLDELPRLERDVHQARAQAAPGLKPEVIPPDVSLKELALAFAEVLKRASAFEHHQVKKEVLSTRERMSEILAKLDHEHFTPFTALFSPEEGRGGVVVSFLALMELVKETLVELYQAEPLSGIYVKAT", "soluble on expression in E. coli": "not soluble"}, {"sequence": "MGSDKIHHHHHHMQKLQTVNAETLLYEPLEKPSFVVDSLIPTGLSLFCGSQKIGKSWLMLKLCLCVSQGIPLWDMPTMEGDVLYLCLEDTFCRIQDRLFRLTDEASGRLHFAVASCKLSDGLIVQLEDYLKDYPDSRLIVIDTLQKVRTASKDNAYASDYGDISLIKDFADRHSLAVIVVHHIRKQNDSDVFNKVSGTTGLTGSADATFVLEKEKRASDTAKLYVTGRDTPYQEYTLRFRDCRWELVERKTQEQLAKETIPDVLFRLVDFMRDKEEWIGTATELLAAMGETETIPTVITKWLNEYRTTFLSENRICYQYSRRKDGRRIALARRAGDSGDGGDSDIRIPPCYCH", "soluble on expression in E. coli": "not soluble"}, {"sequence": "MGSDKIHHHHHHMQPTIDQKKNPAIGNQRVTKRRKTIAQGLIQEGIELEIIQSWLFAIAQMWEVGHIPPILRGISHKSQVEALFRISQIGETIQKVHEKLAGEYYQDWVKSLNRAGLHTPSEIISAITEIQQVVKPEAIDTTKQLLNKLELEIIGMKDGDFFPTPKPLCQRLVQLADIKPNWQILEPSAGSGNIAEYITNTYPNVQLEVVEINYDLRQILELKGFNLVGKNFLEFNPSHLYNACIMNPPFCELVQHIYQAWKLLITGGVLVSVIPESVFFNRKYKTFKNWLLANNSYVEMVDKDAFLSSNNPTNVATRIIKLIKP", "soluble on expression in E. coli": "not soluble"}, {"sequence": "MGSDKIHHHHHHMQQFPRLARVGLGFRRELIPALKSGVPATIDFFEIAPENWIDLGGGAARDLLFFTERYPFVCHGLSLSIGGPAPLDEILLQKIRQFLDQHRVLLYTEHLSYCSDDGHLYDLLPIPFTEEAVKYVAERVRRTQDILERRIALENASFYVASPISDMSELDFIRAVLLEADCDLHLDVNNVYVNSINHDYDPVDFIRALPSDRIVYMHMAGHHKEAENLIIDTHGADVIDPVWSLLDQTYGMHGVAPTLLERDFNIPPLEQLMREVLHIALIQAQHADSGDASAT", "soluble on expression in E. coli": "not soluble"}, {"sequence": "MGSDKIHHHHHHMQRARAEQRGRDLVIHLDRPLNQDHLETVSGGQGEFYVDFEVADPRKASVQQRRLFFALLHDIETYFVVPSEFLKSMFYTQYEFYTAGKSISLSDATESSVSDANTLLDLVIDFMFEWRVPFKKGYELLPKEEQYFIYQCCRHRVCIVCGEHADIHHVDVVGRTNRNKIDHSQRHVMALCRAHHSEIESIGSAKFAAKYHVPVTGIKLKIEDLQKLGIRGNYGGD", "soluble on expression in E. coli": "not soluble"}, {"sequence": "MGSDKIHHHHHHMQRLMNNIMKVENFLAQKSINYDKIDRFLMFRMYEKYKKYFKNIPIIQLIGTNGKGSTGRYLTQLLENLNYKIGHYTSPHIFSFNERFYLDGKIANDEELEQAHIRLEEIFKQDLQKLSYFEYATFLAMILFQKCDFIVLEAGVGGEYDATSIFERRMSIFTRIGFDHIQILGNSLEDIARTKLKVMAPIALISDEQEQNVLNLAKKIAFLKKANLQVSSLNPFLKEKFEIYCKKFVLPYFLKHNLKLALKACEILTSQEKTLEALKKLQELNLQGRCQEISPNFFVDVGHNPMAAKAMLDKFQGEKINLIYNAYLDKDIFQILNTLKPIIDTIQIYKYKSAERKLADDEIYSIASKLGMQCKEFVKLEENKKNLVFGSFMLVENFLKEWCGKK", "soluble on expression in E. coli": "not soluble"}, {"sequence": "MGSDKIHHHHHHMQSFDVVIAGGGMVGLALACGLQGSGLRIAVLEKQAAEPQTLGKGHALRVSAINAASECLLRHIGVWENLVAQRVSPYNDMQVWDKDSFGKISFSGEEFGFSHLGHIIENPVIQQVLWQRASQLSDITLLSPTSLKQVAWGENEAFITLQDDSMLTARLVVGADGAHSWLRQHADIPLTFWDYGHHALVANIRTEHPHQSVARQAFHGDGILAFLPLDDPHLCSIVWSLSPEQALVMQSLPVEEFNRQVAMAFDMRLGLCELESERQTFPLMGRYARSFAAHRLVLVGDAAHTIHPLAGQGVNLGFMDVAELIAELKRLQTQGKDIGQHLYLRRYERRRKHSAAVMLASMQGFRELFDGDNPAKKLLRDVGLVLADKLPGIKPTLVRQAMGLHDLPDWLSAGK", "soluble on expression in E. coli": "not soluble"}, {"sequence": "MGSDKIHHHHHHMQSKSDIQRLLTIMERLRDPQTGCPWDKAQSYQTIVPFTLEEAFEVADTIERGALDELPGELGDLLFQVIFYCQLGKEQGRFDFDQVVEKICTKLTERHPHVFGEMTQASSESVRETWESIKAKERKGRSLHSVLDDIPRSLPALTRAAKVQRRVATVGFDWNDLGPVVAKIHEEIDEVMVEVAAQDRDKMEDELGDLLFAVVNLARHLKLDPEQALRRATNKFEHRFRGVEALAAQSGKAMQEHSLTELDAYWEQVKRNDPLKG", "soluble on expression in E. coli": "not soluble"}, {"sequence": "MGSDKIHHHHHHMQTGKAISIPSILKVGNGTLNKIGEYLKSEELTSVVIFMGNGLIDMFGDTIMKSLTDAGITVLEYSELDTVEIDDIITLAFDIPNKVKAVVSVGGGKVIDAGKYAAFLRNMPFISVPTSSSSDGFSSASASLLVHGKRTSVPAKLAHGIIVDTQVIRTAPEKFIYSGIGDMVSKITALYDWIFEEAHGAGVVNDFAVMVAKKAVNSFVRTPYESIKDELFLKELVDSLAMSGIANEIAGSSAPTSGSEHLISHALDKILEHPQLHGIQVGIATYIMSVVQNHRYVRVCTVLKRTGFFDYAATLGMRKQDFLDAIDMAPSMKPFRHTYLHEKEYRDAAKKLVLEDDILNKILV", "soluble on expression in E. coli": "not soluble"}, {"sequence": "MGSDKIHHHHHHMQTTTALRLYGKRDLRLETFTLPAMQDDEILARVVTDSLCLSSWKEANQGADHKKVPDDVATRPIIIGHEFCGEILAVGKKWQHKFQPGQRYVIQANLQLPDRPDCPGYSFPWIGGEATHVVIPNEVMAQDCLLTWEGDTWFEGSLVEPLSCVIGAFNANYHLQEGSYNHVMGIRPQGHTLILGGTGPMGLLAIDYALHGPINPSLLVVTDTNKPKLSYARRHYPSEPQTLIHYLDGHEASRDTLLALSGGHGFDDIFVFVPNEQLITLASSLLAPDGCLNFFAGPQDKQFSAPINFYDVHYAFTHYVGTSGGNTDDMRAAVALMQAKKVQTAKVVTHILGLNAAGETTLDLPAVGGGKKLVYTGKAFPLTPLGEIADPELAAIVARHHGIWSQDAEAYLLAHAEDITHD", "soluble on expression in E. coli": "not soluble"}, {"sequence": "MGSDKIHHHHHHMQVPSGAADLPEQMGTKAKFWFDDSRRLFKEGRPGTGENWAEVIAAELAALLGLPHATYSLAEYEGRRGVVTESFVPSGARLILGNELIGFAARETVSRHTRGQAHTIGRLSSLLNRPQVALPSGWVSPTSFFNAADVMSGYLLLDALIANQDRHEENWGLINSHGAIYLAPTFDHASSLGRNETDQRRIQKLDANHPDHGVLGYARRAKVPIYDGMGPLQSGEAFFAFARSCPDKGAYWLNRLHELDPSSFLALLNRIPVGWITDPARRFAAELLKVNRDRLLDEK", "soluble on expression in E. coli": "not soluble"}, {"sequence": "MGSDKIHHHHHHMQVYPLIMNKLVMPAASRFTDLKIWDEYKVMLKSERLSLEQLRQMQLTKLQTIVRHAYENVPFYRQRFDSIGLHPEDIKSIEDIERIPPTTKDDIMANFPEGITAGGMDRNRWKYVASSGTTRKIMGIHDFRKSTLNWAAGIRAHRLAGNHRMGMKWMEIPPHMCTTICGINDGPKGEKLSTKKLVSLVKEGDFGGAGRHVYEGLYSMRHDLYKRVTLPSFGPEGTNIPESDIVSYLDSIRSYQPHLLEGLPLYLYTFAKYILDKGISAPRVGVIKPFGGSLTPYMKQIIATAFGCEVYDTYGCSELGFMAADCPKHEGVHLFMDLYHVEVRHGDRAAAPGELGKFYVTDLENRAMPWIRYEIGDVGRYFEDDHGCGRRGIRLEVEGRVQDTLVNSQGRFFTSDEVFDFFHRREEIDNFQLTEKSAGRYELLCVPVEGKEVDREGIARDFREFFDTEANVKAYAVKTIKAEDGGKFRFIKAKGHDRL", "soluble on expression in E. coli": "not soluble"}, {"sequence": "MGSDKIHHHHHHMRAKAKLYPKEAARLIREKPGVREAVTGATLHFERNRLKAYAEVPIEAWRERAKAVKDHVLTHLDHYLELAERRLRENGVQVHWAETPEDAHRVLREVVARHGVKRAVKAKSMLTEELGVNPLLEALGVEVYETDLGEYLIQLLGEPPSHIVGPAIHLSLEEIQRLFHQRFGTPLDAPPEALAQVARRVLREAFLTAELGISGANFLVAETGTLALMENEGNIRLSTSLPRVHVAFVGIEKLLPRFADLALFLPLAARAATGQRLSTFVSLIQGPAREGEEGPLEVHVVLVDNGRTALLHDPEAWETLRCLRCGACLNACPVYRQTGGHPYGYVYSGPIGAVLDPGLLTLEEAYPLPYASTLCGACLEACPVKIPIPKLLLAWRHRAVEEGLTPSWEHGAMRAFRKVMESPALYRLFSKGLRGLPLPQDLLPLLKAWTEGRGPLKPSPKPFHELWKEVERGG", "soluble on expression in E. coli": "not soluble"}, {"sequence": "MGSDKIHHHHHHMRALDIAATGMSAQQLRVDVISNNIANMSTTGYSPRRADFADLHYQQMVRAGAINASDGTVVPAGVQIGLGVRPAAVTVTWEQGTLGATGGQLDVAIEGRGYLEVTLPSGDNAYTRDGALQRTGDGLIVTNDGFEVNPGITIPDDAQEITINANGEVFASFRGEIQPQLLGQLNMVRFTNDNGLEAIGSNLFLETGASGAPLAGDPGEDGMGTFRQGYVEQSSVDAVREITDLIEAQRGYELNAKVLTAADQILGATTQVR", "soluble on expression in E. coli": "not soluble"}, {"sequence": "MGSDKIHHHHHHMRAVRLHAKWDPRPEFKLGPKDIEGKLTWLGSKVWRYPEVRVEEVPEPRIEKPTEIIIKVKACGICGSDVHMAQTDEEGYILYPGLTGFPVTLGHEFSGVVVEAGPEAINRRTNKRFEIGEPVCAEEMLWCGHCRPCAEGFPNHCENLNELGFNVDGAFAEYVKVDAKYAWSLRELEGVYEGDRLFLAGSLVEPTSVAYNAVIVRGGGIRPGDNVVILGGGPIGLAAVAILKHAGASKVILSEPSEVRRNLAKELGADHVIDPTKENFVEAVLDYTNGLGAKLFLEATGVPQLVWPQIEEVIWRARGINATVAIVARADAKIPLTGEVFQVRRAQIVGSQGHSGHGTFPRVISLMASGMDMTKIISKTVSMEEIPEYIKRLQTDKSLVKVTMLNE", "soluble on expression in E. coli": "not soluble"}, {"sequence": "MGSDKIHHHHHHMRCFIGIDLGSTTTKAVVMDENLQILGRGITNSRSNYDTAAAVSKQEALIDTRLTLFRRALGGVPEVAGKVDDILSDLERNFRHVQFLEQLEDLQQTCIANIKGPRFAGREKTVIEALEGTFSRLRDSSAKQYAPGVKRKSDFFRDLAGAEFMSHGEAVCKEAGLGFDLILNVYDKSIIEVENRPPSGDMEGKFVRALEKGTMTGSSILAPVQSALAIPLEETYVVGTGYGRVRLPFPKEHIRSEILCHGLGAHMMYPETRTVLDIGGQDTKGIQVDPVGIVENFQMNDRCAAGCGRYLGYIADEMNMGLHELGPLAMKSNKQVRINSTCTVFAGAELRDRLALGEKREDILAGLHRAIILRAMSILSRAGGVKDQFTFTGGVAKNEAAVRELRKLIKENYGDVTINIDPDSIYTGALGGATFAVRAVVN", "soluble on expression in E. coli": "not soluble"}]}]}
